Assay results published in patent publication US20140087995A1 (published 2014).
Each block holds one binder with its values, some of them ahead of it. Numbered stars: 1 amine (or outer) side, 2 acyl side, 3 side chain; on linkers, the order of the positions; unused ones are H or OH. Bridge positions count the residues as written; N and C are the ends. Square brackets hold non-standard residues; d marks the D form. Side chains are listed from the residue outwards. Ends that are not written are not given here. * marks the point of attachment. C20 diacid = O=C(O)CCCCCCCCCCCCCCCCCCC(=O)*; γGlu = O=C(O)[C@H](CCC(=O)[*:2])N[*:1]

Assays:
[1] = target: T1, human calcitonin receptor (human, UniProt P30988 25-474); assay: SPA competition binding, displacement of 125I-calcitonin from membranes with human calcitonin receptor (Assay VII)
T1 construct: whole, on cells; Membranes in a scintillation proximity assay (Assay VII); also called hCTR; hCT
T1 sequence (looked up): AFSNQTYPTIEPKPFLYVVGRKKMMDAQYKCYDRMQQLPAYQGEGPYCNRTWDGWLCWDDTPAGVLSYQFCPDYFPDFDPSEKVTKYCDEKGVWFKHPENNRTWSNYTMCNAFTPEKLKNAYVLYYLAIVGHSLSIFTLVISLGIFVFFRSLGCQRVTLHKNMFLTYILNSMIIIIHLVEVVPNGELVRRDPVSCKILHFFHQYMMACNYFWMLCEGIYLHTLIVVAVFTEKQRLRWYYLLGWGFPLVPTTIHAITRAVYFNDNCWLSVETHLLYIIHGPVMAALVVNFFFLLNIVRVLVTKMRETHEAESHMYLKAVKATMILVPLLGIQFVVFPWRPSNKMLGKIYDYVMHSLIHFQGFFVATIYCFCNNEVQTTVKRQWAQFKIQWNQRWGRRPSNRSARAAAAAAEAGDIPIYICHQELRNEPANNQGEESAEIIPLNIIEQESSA
Method: Membranes were prepared in the following way; the cells were rinsed with PBS and incubated with Versene for approximately 5 min before harvesting. The cells were flushed with PBS and the cell-suspension was centrifuged for 5 min at 1000 rpm. Cells were homogenized (Ultrathurrax) in a buffer containing 20 mM Na-HEPES and 10 mM EDTA (pH 7.4) and centrifuged at 20.000 rpm for 15 min. The resulting pellet was resuspended, homogenized and centrifuged (20.000 rpm, 15 min) in a buffer containing 20 mM Na-HEPES and 0.1 mM EDTA (pH 7.4, buffer 2). The resulting pellet was resuspended in buffer 2 and protein concentration was measured (BCA protein Assay, Pierce). The homogenate was kept cold during the whole procedure. The membranes were kept at −80° C. until use. Assay was performed in a 384 well Optiplate (PerkinElmer) in a total volume of 40 ul. Membranes were mixed with SPA beads. Final concentration of membranes 35 ng/μL final and Final concentration of SPA beads was 0.05 mg/well. Test-compounds were dissolved in DMSO and further diluted in assay buffer (50 mM Hepes, pH 7.4, 1 mM CaCl2, 5 mM MgCl₂, 0.1% OA and 0.02% Tween20). […] The final mixture was incubated for 120 min with shaking at 400 rpm at 25° C. prior to centrifugation (1500 rpm, 10 min). Samples were analyzed on TopCounter™ (Packard). The […] was calculated using (one site binding competition analysis) GraphPad Prism5 as a measure of receptor affinity.

[2] = target: T2, human amylin receptor (amylin 3(a) receptor: human calcitonin receptor with RAMP-3) (human, UniProt P30988 25-474; O60896 24-148); assay: cell-based or functional assay
T2 sequence (looked up) 1: T1 sequence (looked up)
T2 sequence (looked up) 2: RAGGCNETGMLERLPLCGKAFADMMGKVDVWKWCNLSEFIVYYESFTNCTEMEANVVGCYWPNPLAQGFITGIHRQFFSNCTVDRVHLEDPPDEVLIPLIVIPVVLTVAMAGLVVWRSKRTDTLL

[3] = target: T3, human calcitonin receptor (human, UniProt P30988 25-474); assay: cell-based or functional assay
T3 sequence (looked up): T1 sequence (looked up)

[4] = target: T2, human amylin receptor (amylin 3(a) …); assay: SPA competition, displacement of 125I-rat amylin from membranes of BHK cells with the human amylin 3(a) receptor
Method: The binding assay was performed using scintillation proximity assay (SPA) beads (RPNQ0001) from PerkinElmer and cell membranes from the Amylin 3(a)/CRE-luc cells (as described in Assay (II)) were used. Membranes were prepared in the following way; the cells were rinsed with PBS and incubated with Versene for approximately 5 min before harvesting. The cells were flushed with PBS and the cell-suspension was centrifuged for 5 min at 1000 rpm. Cells were homogenized (ultrathurrax) in a buffer containing 20 mM Na-HEPES and 10 mM EDTA (pH 7.4) and centrifuged at 20.000 rpm for 15 min. The resulting pellet was resuspended, homogenized and centrifuged (20.000 rpm, 15 min) in a buffer containing 20 mM Na-HEPES and 0.1 mM EDTA (pH 7.4, buffer 2). The resulting pellet was resuspended in buffer 2 and protein concentration was measured (BCA protein Assay, Pierce). The homogenate was kept cold during the whole procedure. The membranes were kept at −80° C. until use. The assay was performed in a 384 well Optiplate (PerkinElmer) in a total volume of 40 ul. Membranes were mixed with SPA beads. Final concentration of membranes 35 ng/μL final and SPA beads was 0.05 mg/well. Test-compounds were dissolved in DMSO and further diluted in assay buffer (50 mM Hepes, pH 7.4, 1 mM CaCl2, 5 mM MgCl₂, 0.1% OA and 0.02% Tween20). […] The final mixture was incubated with shaking at 400 rpm for 120 min at 25° C. prior to centrifugation (1500 rpm, 10 min). Samples were analyzed on TopCounter™ (Packard). The IC₅₀ was calculated using (one site binding competition analysis) GraphPad Prism5 as a measure of receptor affinity.

IC50 [1]: 112 nM
Binder: K([γGlu-γGlu-C20 diacid])CNTATCATQRLA[dD]FLRHSSPNFGAIPSSTNVGSRTY-NH2 (disulfide 2-7 (inferred))

hAmylin-R funct. EC50 [2]: 0.06 nM
Ratio hCT/hAmylin funct. [3]: 1.2
hCTR funct. EC50 [3]: 0.07 nM
IC50 [4]: 0.321 nM
B1: N^α1-[(4S)-4-carboxy-4-(19-carboxynonadecanoylamino)butanoyl]-[Glu14,Arg17,Pro21,Pro25,Pro28,Pro29,Pro37]-h-amylin (peptide)
peptide: {C20 diacid-γGlu}-KCNTATCATQRLAEFLRHSSPNFGPILPPTNVGSNTP-NH2
modifications: disulfide 2-7
SMILES: CC[C@H](C)[C@H](NC(=O)[C@@H]1CCCN1C(=O)CNC(=O)[C@H](Cc1ccccc1)NC(=O)[C@H](CC(N)=O)NC(=O)[C@@H]1CCCN1C(=O)[C@H](CO)NC(=O)[C@H](CO)NC(=O)[C@H](Cc1c[nH]cn1)NC(=O)[C@H](CCCNC(=N)N)NC(=O)[C@H](CC(C)C)NC(=O)[C@H](Cc1ccccc1)NC(=O)[C@H](CCC(=O)O)NC(=O)[C@H](C)NC(=O)[C@H](CC(C)C)NC(=O)[C@H](CCCNC(=N)N)NC(=O)[C@H](CCC(N)=O)NC(=O)[C@@H](NC(=O)[C@H](C)NC(=O)[C@@H]1CSSC[C@H](NC(=O)[C@H](CCCCN)NC(=O)CC[C@H](NC(=O)CCCCCCCCCCCCCCCCCCC(=O)O)C(=O)O)C(=O)N[C@@H](CC(N)=O)C(=O)N[C@@H]([C@@H](C)O)C(=O)N[C@@H](C)C(=O)N[C@@H]([C@@H](C)O)C(=O)N1)[C@@H](C)O)C(=O)N[C@@H](CC(C)C)C(=O)N1CCC[C@H]1C(=O)N1CCC[C@H]1C(=O)N[C@H](C(=O)N[C@@H](CC(N)=O)C(=O)N[C@H](C(=O)NCC(=O)N[C@@H](CO)C(=O)N[C@@H](CC(N)=O)C(=O)N[C@H](C(=O)N1CCC[C@H]1C(N)=O)[C@@H](C)O)C(C)C)[C@@H](C)O
notes: also called compound 4

hAmylin-R funct. EC50 [2]: 0.128 nM
Ratio hCT/hAmylin funct. [3]: 5.7
hCTR funct. EC50 [3]: 0.729 nM
IC50 [4]: 0.996 nM
B2: N^α1-[(4S)-4-carboxy-4-(19-carboxynonadecanoylamino)butanoyl]-[Glu14,Arg17,Pro21,Pro25,Pro28,Pro29]-h-amylin (peptide)
peptide: {C20 diacid-γGlu}-KCNTATCATQRLAEFLRHSSPNFGPILPPTNVGSNTY-NH2
modifications: disulfide 2-7
SMILES: CC[C@H](C)[C@H](NC(=O)[C@@H]1CCCN1C(=O)CNC(=O)[C@H](Cc1ccccc1)NC(=O)[C@H](CC(N)=O)NC(=O)[C@@H]1CCCN1C(=O)[C@H](CO)NC(=O)[C@H](CO)NC(=O)[C@H](Cc1c[nH]cn1)NC(=O)[C@H](CCCNC(=N)N)NC(=O)[C@H](CC(C)C)NC(=O)[C@H](Cc1ccccc1)NC(=O)[C@H](CCC(=O)O)NC(=O)[C@H](C)NC(=O)[C@H](CC(C)C)NC(=O)[C@H](CCCNC(=N)N)NC(=O)[C@H](CCC(N)=O)NC(=O)[C@@H](NC(=O)[C@H](C)NC(=O)[C@@H]1CSSC[C@H](NC(=O)[C@H](CCCCN)NC(=O)CC[C@H](NC(=O)CCCCCCCCCCCCCCCCCCC(=O)O)C(=O)O)C(=O)N[C@@H](CC(N)=O)C(=O)N[C@@H]([C@@H](C)O)C(=O)N[C@@H](C)C(=O)N[C@@H]([C@@H](C)O)C(=O)N1)[C@@H](C)O)C(=O)N[C@@H](CC(C)C)C(=O)N1CCC[C@H]1C(=O)N1CCC[C@H]1C(=O)N[C@H](C(=O)N[C@@H](CC(N)=O)C(=O)N[C@H](C(=O)NCC(=O)N[C@@H](CO)C(=O)N[C@@H](CC(N)=O)C(=O)N[C@H](C(=O)N[C@@H](Cc1ccc(O)cc1)C(N)=O)[C@@H](C)O)C(C)C)[C@@H](C)O
notes: also called compound 6

hAmylin-R funct. EC50 [2]: 0.162 nM
Ratio hCT/hAmylin funct. [3]: 1
hCTR funct. EC50 [3]: 0.16 nM
IC50 [4]: 0.374 nM
B3: N^α1-[(4S)-4-carboxy-4-(19-carboxynonadecanoylamino)butanoyl]-[Glu14,Arg17,Pro21,Pro26,Pro37]-h-amylin (peptide)
peptide: {C20 diacid-γGlu}-KCNTATCATQRLAEFLRHSSPNFGAPLSSTNVGSNTP-NH2
modifications: disulfide 2-7
SMILES: CC(C)C[C@H](NC(=O)[C@H](CCCNC(=N)N)NC(=O)[C@H](CCC(N)=O)NC(=O)[C@@H](NC(=O)[C@H](C)NC(=O)[C@@H]1CSSC[C@H](NC(=O)[C@H](CCCCN)NC(=O)CC[C@H](NC(=O)CCCCCCCCCCCCCCCCCCC(=O)O)C(=O)O)C(=O)N[C@@H](CC(N)=O)C(=O)N[C@@H]([C@@H](C)O)C(=O)N[C@@H](C)C(=O)N[C@@H]([C@@H](C)O)C(=O)N1)[C@@H](C)O)C(=O)N[C@@H](C)C(=O)N[C@@H](CCC(=O)O)C(=O)N[C@@H](Cc1ccccc1)C(=O)N[C@@H](CC(C)C)C(=O)N[C@@H](CCCNC(=N)N)C(=O)N[C@@H](Cc1c[nH]cn1)C(=O)N[C@@H](CO)C(=O)N[C@@H](CO)C(=O)N1CCC[C@H]1C(=O)N[C@@H](CC(N)=O)C(=O)N[C@@H](Cc1ccccc1)C(=O)NCC(=O)N[C@@H](C)C(=O)N1CCC[C@H]1C(=O)N[C@@H](CC(C)C)C(=O)N[C@@H](CO)C(=O)N[C@@H](CO)C(=O)N[C@H](C(=O)N[C@@H](CC(N)=O)C(=O)N[C@H](C(=O)NCC(=O)N[C@@H](CO)C(=O)N[C@@H](CC(N)=O)C(=O)N[C@H](C(=O)N1CCC[C@H]1C(N)=O)[C@@H](C)O)C(C)C)[C@@H](C)O
notes: also called compound 5

hAmylin-R funct. EC50 [2]: 0.255 nM
Ratio hCT/hAmylin funct. [3]: 4.5
hCTR funct. EC50 [3]: 1.16 nM
IC50 [4]: 0.674 nM
B4: N^α1-[(4S)-4-carboxy-4-(19-carboxynonadecanoylamino)butanoyl]-[Glu14,Arg17,Pro21,Pro26]-h-amylin (peptide)
peptide: {C20 diacid-γGlu}-KCNTATCATQRLAEFLRHSSPNFGAPLSSTNVGSNTY-NH2
modifications: disulfide 2-7
SMILES: CC(C)C[C@H](NC(=O)[C@H](CCCNC(=N)N)NC(=O)[C@H](CCC(N)=O)NC(=O)[C@@H](NC(=O)[C@H](C)NC(=O)[C@@H]1CSSC[C@H](NC(=O)[C@H](CCCCN)NC(=O)CC[C@H](NC(=O)CCCCCCCCCCCCCCCCCCC(=O)O)C(=O)O)C(=O)N[C@@H](CC(N)=O)C(=O)N[C@@H]([C@@H](C)O)C(=O)N[C@@H](C)C(=O)N[C@@H]([C@@H](C)O)C(=O)N1)[C@@H](C)O)C(=O)N[C@@H](C)C(=O)N[C@@H](CCC(=O)O)C(=O)N[C@@H](Cc1ccccc1)C(=O)N[C@@H](CC(C)C)C(=O)N[C@@H](CCCNC(=N)N)C(=O)N[C@@H](Cc1c[nH]cn1)C(=O)N[C@@H](CO)C(=O)N[C@@H](CO)C(=O)N1CCC[C@H]1C(=O)N[C@@H](CC(N)=O)C(=O)N[C@@H](Cc1ccccc1)C(=O)NCC(=O)N[C@@H](C)C(=O)N1CCC[C@H]1C(=O)N[C@@H](CC(C)C)C(=O)N[C@@H](CO)C(=O)N[C@@H](CO)C(=O)N[C@H](C(=O)N[C@@H](CC(N)=O)C(=O)N[C@H](C(=O)NCC(=O)N[C@@H](CO)C(=O)N[C@@H](CC(N)=O)C(=O)N[C@H](C(=O)N[C@@H](Cc1ccc(O)cc1)C(N)=O)[C@@H](C)O)C(C)C)[C@@H](C)O
notes: also called compound 7

hAmylin-R funct. EC50 [2]: 0.243 nM
Ratio hCT/hAmylin funct. [3]: 2.2
hCTR funct. EC50 [3]: 0.528 nM
IC50 [4]: 0.915 nM
Binder: {C20 diacid-γGlu}-KCNTATCATQRLAEFLRHSSPNFGAILPSTNVGSETY-NH2 (disulfide 2-7, also called compound 33)
